In US7507799 (CORNELL RESEARCH FOUNDATION, dated 2009):

What was measured:
p75NTR on A875 cells [1] = molecular target: T1, p75NTR on A875 cells (UniProt P08138 29-427); test: ratio of IC50s, whole-cell competition against 125I-NGF on cells expressing only p75
T1 construct: whole, on cells; also called p75 receptor; cells expressing only p75
T1 sequence (looked up): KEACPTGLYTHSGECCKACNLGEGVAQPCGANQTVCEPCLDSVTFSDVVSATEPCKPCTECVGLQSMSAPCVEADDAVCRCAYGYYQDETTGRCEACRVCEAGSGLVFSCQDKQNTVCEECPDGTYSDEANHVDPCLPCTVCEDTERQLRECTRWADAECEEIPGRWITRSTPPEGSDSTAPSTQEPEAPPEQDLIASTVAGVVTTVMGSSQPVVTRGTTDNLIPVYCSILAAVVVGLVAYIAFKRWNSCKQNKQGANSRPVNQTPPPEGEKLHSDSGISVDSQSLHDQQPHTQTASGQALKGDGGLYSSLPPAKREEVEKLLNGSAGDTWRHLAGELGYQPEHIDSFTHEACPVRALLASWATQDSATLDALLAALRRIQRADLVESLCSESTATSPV
Procedure: (§1) FIG. 8: Binding analysis of mature and cleavage-resistant pro-NGF to TrkA or p75^NTR receptors. […] Competition analysis of equilibrium binding was performed using a whole-cell assay. Cells were incubated with 1 nM radioiodinated NGF in the presence or absence of unlabeled mature NGF or unlabeled proNGF from 0.005 to 7 nM concentration for 1 hour at […] Nonspecific binding measured in parallel incubation with 500-fold excess mature NGF was less than 10% of total binding; all results were corrected for this non-specific binding. Each point represents the mean±standard deviation of quadruplicate determinations. Squares, commercial mature NGF; open circles, cleavage resistant pro-NGF.
(§2) The cleavage resistant proform of NGF binds with higher affinity than the cleaved mature form of NGF to the p75 receptor. Competition binding assays were performed to determine the affinity of interaction of the uncleaved proform to p75 or to trk A. Commercially purchased, predominantly mature NGF (Enzo Products for Science, Farmingdale, N.Y.) was radiolabeled and incubated with cells expressing only p75, in the presence or absence of increasing concentrations of either unlabeled cleaved NGF, or of unlabeled cleavage resistant pro-NGF. […] Thus, the cleavage resistant pro-NGF proform binds less effectively to trk A.

TrkA on 293 cells = test: whole-cell competition against 1 nM 125I-NGF on 293 cells expressing only trk A
Sequence of TrkA on 293 cells (chain, as listed by the source): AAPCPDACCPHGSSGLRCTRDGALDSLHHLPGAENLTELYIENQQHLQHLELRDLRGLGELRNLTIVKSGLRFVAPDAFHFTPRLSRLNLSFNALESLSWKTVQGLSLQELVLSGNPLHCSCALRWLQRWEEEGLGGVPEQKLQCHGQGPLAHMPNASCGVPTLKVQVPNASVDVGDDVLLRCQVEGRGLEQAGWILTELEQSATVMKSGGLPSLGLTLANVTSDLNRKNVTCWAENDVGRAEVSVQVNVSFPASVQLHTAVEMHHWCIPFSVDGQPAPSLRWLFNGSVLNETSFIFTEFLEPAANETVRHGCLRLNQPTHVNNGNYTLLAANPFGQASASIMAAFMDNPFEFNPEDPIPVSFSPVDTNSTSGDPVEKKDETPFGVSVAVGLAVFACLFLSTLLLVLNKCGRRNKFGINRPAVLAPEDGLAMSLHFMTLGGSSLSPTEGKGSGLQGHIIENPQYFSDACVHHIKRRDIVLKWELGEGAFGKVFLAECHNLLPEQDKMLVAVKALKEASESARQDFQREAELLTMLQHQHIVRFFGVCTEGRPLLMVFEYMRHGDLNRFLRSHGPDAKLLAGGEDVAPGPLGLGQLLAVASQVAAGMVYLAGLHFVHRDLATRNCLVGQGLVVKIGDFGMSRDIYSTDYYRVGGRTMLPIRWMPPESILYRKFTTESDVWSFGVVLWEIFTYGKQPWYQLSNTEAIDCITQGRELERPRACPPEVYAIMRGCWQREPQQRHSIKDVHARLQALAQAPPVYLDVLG
Procedure: as §1, §2

p75NTR on A875 cells [2] = molecular target: T1, p75NTR on A875 cells; test: whole-cell competition against 1 nM 125I-NGF on cells expressing only p75 (A875 cells)
Procedure: as §1, §2

[3] = molecular target: p75 on vascular smooth muscle cell line (p75Ts-Tag-SMC); test: cell-based or functional assay

B1: His-tagged cleavage resistant pro-NGF (point mutant, K-R cleavage site at 120,121 mutated to A-A) (ligand)
chain: EPYTDSNVPEGDSVPEAHWTKLQHSLDTALRRARSAPTAPIAARVTGQTRNITVDPRLFKKRRLHSPRVLFSTQPPPTSSDTLDLDFQAHGTIPFNRTHRSAASSTHPVFHMGEFSVCDSVSVWVGDKTTATDIKGKEVTVLAEVNINNSVFRQYFFETKCRASNPVESGCRGIDSKHWNSYCTTTHTFVKALTTDEKQAAWRFIRIDTACVCVLSRKATRRG
notes: also called cleavage resistant proform of NGF; uncleaved proform; not shown: His tag at the carboxy-terminus
p75NTR on A875 cells [1]
  times as effective in binding p75 as cleaved NGF: ~5 fold
TrkA on 293 cells
  IC50: > 5 nM
p75NTR on A875 cells [2]
  IC50: 0.2 nM
[3]
  induction of apoptosis relative to mature NGF: ~10 fold
